Source: the supplement of paper PMC12764529
± gives the half width of the 95% confidence interval.

Tests used:
[1] = folding stability dG unfold from trypsin proteolysis; higher = more stable
Method in brief: (§1)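 How resistant each design was to proteolysis was captured as K50, inferred by Bayesian fitting of sequencing counts. Unfolding free energy was then derived relative to a sequence-predicted unfolded-state K50 and a shared folded-state K50, per protease or combined. Digestion used trypsin and chymotrypsin at 11 threefold-diluted concentrations plus a no-protease condition, on mini-proteins under 80 residues without cysteine in a PA-tagged cDNA display construct. Designs were kept only when AlphaFold2 dimer inter-PAE was above 15.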

[2] = folding stability dG unfold from chymotrypsin proteolysis; higher = more stable
Method in brief: as §1

[3] = folding stability dG unfold (combined trypsin and chymotrypsin); higher = more stable
Method in brief: as §1

## SAPDKIEIPITFPNGYTFWIKIDPDRIRVTWMDNGLRREKEITPDGMIKLDFRMPNGRPIMSPTIPLEDSAG [r14_213_TrROS]
[1]
  folding stability dG unfold: 0.984 ± 0.028 kcal/mol
[2]
  folding stability dG unfold: 1.93 ± 0.12 kcal/mol
[3]
  folding stability dG unfold: 1.54 ± 0.059 kcal/mol

## SPGMEPIREWELKLPDPDGEDKDLEVEMYRMPEGNYYVDISIPNGKKIPFPMPPDEPITPDDIRNFIKKFSA [r9_616_TrROS]
[1]
  folding stability dG unfold: 0.133 ± 0.26 kcal/mol
[2]
  folding stability dG unfold: 0.613 ± 0.23 kcal/mol
[3]
  folding stability dG unfold: 0.394 ± 0.28 kcal/mol

## SAGGSAGGSDFPVKILEVEFHPNGSITIVIQAPDGWYIKATFHVPPNGNVKMSIELIPDPDAISAGGSAGGS [r20_23_TrROS]
[1]
  folding stability dG unfold: 3.36 ± 0.17 kcal/mol
[2]
  folding stability dG unfold: 4 ± 0.15 kcal/mol
[3]
  folding stability dG unfold: 3.85 ± 0.19 kcal/mol

## GHRIKVNTVHTPSGTFSLTATVRYPDGTTVTYSFNLPSSPNDTFSVSVPESVPLTTVTTSTFQGDTETPTSS [r1_70_JUSTAS]
[1]
  folding stability dG unfold: 1.02 ± 0.044 kcal/mol
[2]
  folding stability dG unfold: 1.69 ± 0.18 kcal/mol
[3]
  folding stability dG unfold: 1.49 ± 0.12 kcal/mol

## SAGGSAGGSAGGMKVLVIFEDNKIPRVVSEEELKKIPLPFKIIPLGPDPEEAKKILEKSSAGGSAGGSAGGS [r10_419_TrMRF]
[1]
  folding stability dG unfold: 0.616 ± 0.13 kcal/mol
[2]
  folding stability dG unfold: 0.34 ± 0.39 kcal/mol
[3]
  folding stability dG unfold: 0.434 ± 0.27 kcal/mol

## SKLVEKIAEEFGISSAMPHPDGQFMIMFPDGYMIKINIEIDEVKPKPDGKPELDLDIEIEIIPMPPPDDMSA [r9_648_TrROS]
[1]
  folding stability dG unfold: 2.05 ± 0.067 kcal/mol
[2]
  folding stability dG unfold: 2.74 ± 0.072 kcal/mol
[3]
  folding stability dG unfold: 2.39 ± 0.19 kcal/mol

## SAGGKKNEKKPIEIDGVFFNPETGKLVKIGPAKIIVPKNAKIELEAEVFDPVTGEVKKVKFKFELPAGSAGG [r13_206_TrMRF]
[1]
  folding stability dG unfold: 0.548 ± 0.057 kcal/mol
[2]
  folding stability dG unfold: 0.816 ± 0.094 kcal/mol
[3]
  folding stability dG unfold: 0.699 ± 0.14 kcal/mol

## SAGGSAMPDDPLVLRANIPFVVVGPDGRPRLFRREILVPFASEEEAERFRRELEALGAEVEPVARASAGGSA [r15_117_TrMRF]
[1]
  folding stability dG unfold: 1.62 ± 0.051 kcal/mol
[2]
  folding stability dG unfold: 2.17 ± 0.13 kcal/mol
[3]
  folding stability dG unfold: 1.93 ± 0.12 kcal/mol

## SAGGTKTINIKNMPPNDPERMVRTARHLLKELKQKGPGKTITIHMDNPWAREVAEYLKKEGIPIEVHSAGGS [r16_450_TrROS]
[1]
  folding stability dG unfold: 0.581 ± 0.17 kcal/mol
[2]
  folding stability dG unfold: 1.09 ± 0.15 kcal/mol
[3]
  folding stability dG unfold: 0.947 ± 0.14 kcal/mol

## SAGGSSGSMSPVLSLFEPGTGVVTYLLKKNDKLYLLVSTGSPGVPPVPSSVSPANLAAGDPVWATAGSAGGS [r16_809_JUSTAS]
[1]
  folding stability dG unfold: -0.924 ± 0.26 kcal/mol
[2]
  folding stability dG unfold: 0.77 ± 0.13 kcal/mol
[3]
  folding stability dG unfold: 0.353 ± 0.1 kcal/mol

## SAGNIMVQVEPDPGGTVKVEIMFMIPLPNGWPIMIQIEWEVRVDEDGEPELKMPIEIFFSEEALDKGFSAGG [r19_63_TrROS]
[1]
  folding stability dG unfold: 2.06 ± 0.11 kcal/mol
[2]
  folding stability dG unfold: 1.99 ± 0.029 kcal/mol
[3]
  folding stability dG unfold: 2.09 ± 0.13 kcal/mol

## SAGGSAMLENLPELDIKIKVEYKAEILPDGSLLIPAKIELEIGDKKFEFEAKILINPNGEITIEIGSAGGSA [r15_891_TrMRF]
[1]
  folding stability dG unfold: 2.97 ± 0.26 kcal/mol
[2]
  folding stability dG unfold: 2.45 ± 0.31 kcal/mol
[3]
  folding stability dG unfold: 2.96 ± 0.31 kcal/mol

## SAGGSASMGVSVAAIAEALDAARPAGAPPLVYVKLPNGEVVRVSPDESLTSISPEGEVEIEIRFLPSAGGSA [r15_50_JUSTAS]
[1]
  folding stability dG unfold: 0.907 ± 0.018 kcal/mol
[2]
  folding stability dG unfold: 0.81 ± 0.022 kcal/mol
[3]
  folding stability dG unfold: 0.878 ± 0.04 kcal/mol

## SAGGSAGGSASSMVTVTVSVSPDEGDEEVAKEIAKELGRPDAKVTKITYDPATGTLTITLVDSAGGSAGGSA [r18_481_JUSTAS]
[1]
  folding stability dG unfold: 1.61 ± 0.067 kcal/mol
[2]
  folding stability dG unfold: 1.53 ± 0.062 kcal/mol
[3]
  folding stability dG unfold: 1.58 ± 0.11 kcal/mol

## SAGGSAKEALVKAVEELFKKLFPDEPIEVLKVDPEKGRITIKVNSDEARKALEKALKELGIEVDLDSAGGSA [r15_196_TrMRF]
[1]
  folding stability dG unfold: 3.75 ± 0.11 kcal/mol
[2]
  folding stability dG unfold: 2.91 ± 0.092 kcal/mol
[3]
  folding stability dG unfold: 3.34 ± 0.11 kcal/mol

## SMIIPPELGFEEAVELIKELLEPEKTYLVVTGDPETGTLSVARLDPETGEVEVEPLPTTEGESFVAVFEISA [r9_1059_TrMRF]
[1]
  folding stability dG unfold: 1.09 ± 0.044 kcal/mol
[2]
  folding stability dG unfold: 1.3 ± 0.059 kcal/mol
[3]
  folding stability dG unfold: 1.27 ± 0.07 kcal/mol

## SAGGMVFKTKDGYLVRIEVFNKETGEKTEILVPEENIEELLKALESKPGVTEVKVEIYKLKDGKPEKLSAGG [r13_914_TrROS_Hall]
[1]
  folding stability dG unfold: 0.862 ± 0.026 kcal/mol
[2]
  folding stability dG unfold: 1.38 ± 0.09 kcal/mol
[3]
  folding stability dG unfold: 1.21 ± 0.095 kcal/mol

## SAGGSAGGSAKLEYDDDYVEIEFKVPDGPIMIYIPDWGWMIWIWPGKEVTIRFPIPKPPDNSAGGSAGGSAG [r3_185_TrROS]
[1]
  folding stability dG unfold: 2.41 ± 0.089 kcal/mol
[2]
  folding stability dG unfold: 4.03 ± 0.24 kcal/mol
[3]
  folding stability dG unfold: 3.43 ± 0.22 kcal/mol

## SAGGSAMVVIRTTKPGGKVEVLAVNPEDGSKTVKTFSSSTSPKEVFEEVNKEFGGEVKVEKVELKASAGGSA [r15_544_TrMRF]
[1]
  folding stability dG unfold: -0.439 ± 0.18 kcal/mol
[2]
  folding stability dG unfold: -0.912 ± 0.58 kcal/mol
[3]
  folding stability dG unfold: -0.512 ± 0.18 kcal/mol

## SAGGMVKTITKPMPLEELEKVYEEAKEAIEAGYEVIFTYPLPDGTTITIKTDYETKKIVEIKTSKPVSSAGG [r13_873_JUSTAS]
[1]
  folding stability dG unfold: -0.345 ± 0.67 kcal/mol
[2]
  folding stability dG unfold: 1.09 ± 0.059 kcal/mol
[3]
  folding stability dG unfold: 0.687 ± 0.28 kcal/mol

## SAGGSATIEEIAQEIADNLPPGRKYRAKIYYDGEERTYEFRNPNGFKINITWKNGKIRSIDIEPRPSAGGSA [r15_175_TrROS]
[1]
  folding stability dG unfold: 1.63 ± 0.046 kcal/mol
[2]
  folding stability dG unfold: 2.01 ± 0.16 kcal/mol
[3]
  folding stability dG unfold: 1.94 ± 0.17 kcal/mol

## SAGGSAGGMKITVEEDPATNRLTITIEVDGHTVTIVYDKDNPNKITVTVSPNMTKDEILKALKSSAGGSAGG [r6_195_TrROS_Hall]
[1]
  folding stability dG unfold: 1.67 ± 0.052 kcal/mol
[2]
  folding stability dG unfold: 2.43 ± 0.034 kcal/mol
[3]
  folding stability dG unfold: 2.17 ± 0.095 kcal/mol

## SAGGMVKLFTWPPGQPEEFAEKLRKLPDVVEVTIEEVDGALRIRIKLKGKDVEVTTDPAGRWSVTVVGSAGG [r13_907_JUSTAS]
[1]
  folding stability dG unfold: 2.15 ± 0.034 kcal/mol
[2]
  folding stability dG unfold: 2.35 ± 0.028 kcal/mol
[3]
  folding stability dG unfold: 2.28 ± 0.048 kcal/mol

## SAGGSAAMVPPEELAERLAEELAAKEGREVTEVTVEVLDPERGVVRVTVTFRSPEGLSTRTVVVDLSAGGSA [r15_32_JUSTAS]
[1]
  folding stability dG unfold: 3.24 ± 0.057 kcal/mol
[2]
  folding stability dG unfold: 3.191 ± 0.026 kcal/mol
[3]
  folding stability dG unfold: 3.21 ± 0.049 kcal/mol

## SAGGMVIEKDGDYEYVLLLVDSPEGFPVEVAKELLKKEFGLKEIKVLSAKPLPNGIRLVLVKNKFEKSAGGS [r16_234_TrMRF]
[1]
  folding stability dG unfold: 0.875 ± 0.023 kcal/mol
[2]
  folding stability dG unfold: 1.57 ± 0.062 kcal/mol
[3]
  folding stability dG unfold: 1.3 ± 0.052 kcal/mol

## SAGGSAGGSAGGEEKEVYLVRFRRPDGSEVTVVAPWEDLEEIVKSLPEAVEVEVEKAPLSAGGSAGGSAGGS [r10_437_TrMRF]
[1]
  folding stability dG unfold: 1.58 ± 0.042 kcal/mol
[2]
  folding stability dG unfold: 2.22 ± 0.089 kcal/mol
[3]
  folding stability dG unfold: 1.98 ± 0.17 kcal/mol

## SAGGMVLVIVSDLKPGELNEIIEKLKKEGLEVKLFLPNGEEIDADPNIEDLPEDVPVVLLVRHPDKSSAGGS [r16_31_TrMRF]
[1]
  folding stability dG unfold: 1.87 ± 0.079 kcal/mol
[2]
  folding stability dG unfold: 2.494 ± 0.017 kcal/mol
[3]
  folding stability dG unfold: 2.35 ± 0.053 kcal/mol

## SAGGSMPLDVSSELLEESTDPSDPNRRTTLERRFSPDGTVTLVTRTFDPATGTTEVQETTLPPGLPSAGGSA [r2_73_JUSTAS]
[1]
  folding stability dG unfold: 0.529 ± 0.06 kcal/mol
[2]
  folding stability dG unfold: 1.49 ± 0.14 kcal/mol
[3]
  folding stability dG unfold: 1.14 ± 0.099 kcal/mol

## SAGGDDKWKIEIDIQPHDDYWVITARIRDPNGKERERMFMMPPDNIKKILNELPPEIEDIEVHRVPNSAGGS [r16_298_TrROS]
[1]
  folding stability dG unfold: 2.11 ± 0.074 kcal/mol
[2]
  folding stability dG unfold: 2.72 ± 0.045 kcal/mol
[3]
  folding stability dG unfold: 2.53 ± 0.17 kcal/mol

## SAGPWRIKEVDPDSYTIEIRFGDRPIEIKIPPGKEPSIMIEMDPDGHFQLTIRVPDRTRTFTIPFDDIRSAG [r5_500_TrROS]
[1]
  folding stability dG unfold: 0.86 ± 0.13 kcal/mol
[2]
  folding stability dG unfold: 0.591 ± 0.25 kcal/mol
[3]
  folding stability dG unfold: 0.674 ± 0.19 kcal/mol

## SSEELRELILNEAAKLGVKIKEIKVKEDPSTNTVSIEITVPDGKVIKLSFTRTSDGGYSYDINELKAGLESA [r9_85_JUSTAS]
[1]
  folding stability dG unfold: 5.35 ± 0.35 kcal/mol
[2]
  folding stability dG unfold: 6.2 ± 0.14 kcal/mol
[3]
  folding stability dG unfold: > 6 kcal/mol
